Measurements: patent publication US11571484B2, “Compositions that target tumor-associated macrophages and methods of use therefor” (Sanford Burnham Prebys Medical Discovery Institute, priority 2017, dated 2023)
Ends that are not written are not given here. FAM = 5(6)-carboxyfluorescein; Ahx = NCCCCCC(=O)O

Molecular target: T1, recombinant mouse macrophage mannose receptor rmMMR/CD206 (Mus musculus, UniProt Q61830)
T1 construct: purchased R&D Systems 2535-MM-050
T1 sequence (Q61830 20-1456): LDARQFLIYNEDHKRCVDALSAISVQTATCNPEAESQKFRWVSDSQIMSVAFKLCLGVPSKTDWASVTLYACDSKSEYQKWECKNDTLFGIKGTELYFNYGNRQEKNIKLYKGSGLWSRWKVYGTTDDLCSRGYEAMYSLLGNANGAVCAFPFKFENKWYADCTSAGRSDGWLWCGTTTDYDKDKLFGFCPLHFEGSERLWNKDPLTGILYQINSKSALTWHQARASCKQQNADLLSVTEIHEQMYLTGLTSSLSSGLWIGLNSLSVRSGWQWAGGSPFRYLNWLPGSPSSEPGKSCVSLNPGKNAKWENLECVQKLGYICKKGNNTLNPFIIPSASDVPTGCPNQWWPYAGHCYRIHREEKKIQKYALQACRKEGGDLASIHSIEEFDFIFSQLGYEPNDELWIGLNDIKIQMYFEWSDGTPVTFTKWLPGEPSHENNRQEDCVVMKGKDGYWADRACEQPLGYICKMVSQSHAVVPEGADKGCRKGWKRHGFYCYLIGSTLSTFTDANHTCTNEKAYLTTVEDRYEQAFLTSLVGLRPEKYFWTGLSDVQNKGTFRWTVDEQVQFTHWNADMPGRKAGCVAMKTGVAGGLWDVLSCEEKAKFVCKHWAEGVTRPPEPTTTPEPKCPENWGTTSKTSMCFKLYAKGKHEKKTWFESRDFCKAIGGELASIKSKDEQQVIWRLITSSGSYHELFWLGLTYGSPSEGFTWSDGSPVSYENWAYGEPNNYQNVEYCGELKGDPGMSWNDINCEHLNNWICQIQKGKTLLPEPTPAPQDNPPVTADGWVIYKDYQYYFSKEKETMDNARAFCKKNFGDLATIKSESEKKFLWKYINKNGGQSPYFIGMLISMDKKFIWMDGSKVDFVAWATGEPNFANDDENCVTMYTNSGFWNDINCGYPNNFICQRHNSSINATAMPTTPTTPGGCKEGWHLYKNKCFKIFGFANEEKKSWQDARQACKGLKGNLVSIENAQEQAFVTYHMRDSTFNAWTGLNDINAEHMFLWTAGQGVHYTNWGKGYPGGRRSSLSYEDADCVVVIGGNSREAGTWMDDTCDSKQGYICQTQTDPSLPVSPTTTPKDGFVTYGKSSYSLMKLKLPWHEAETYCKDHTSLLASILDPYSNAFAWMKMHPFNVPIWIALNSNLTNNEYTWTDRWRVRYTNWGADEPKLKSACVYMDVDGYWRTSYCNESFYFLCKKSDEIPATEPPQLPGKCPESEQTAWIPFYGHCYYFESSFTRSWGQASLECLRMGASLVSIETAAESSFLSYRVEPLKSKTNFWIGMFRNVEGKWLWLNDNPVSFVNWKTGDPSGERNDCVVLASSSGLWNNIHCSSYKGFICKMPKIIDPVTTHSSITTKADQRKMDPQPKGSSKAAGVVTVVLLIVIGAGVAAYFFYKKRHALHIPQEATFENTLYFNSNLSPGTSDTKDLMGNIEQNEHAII
Test: Fluorescence anisotropy assay with mouse recombinant CD206
Format: binding
Details: 50 nM FAM peptide, 1 μM protein, 25 °C
Protocol: The stocks of fluorescent ligands (FAM-UNO, FAM-CSPGAK and FAM-CPMTDNE) in mQ water were stored at −20° C. […], 150 mM NaCl, 1 mM CaCl2, 0.1% Pluronic F-127, pH 7.4) on the day of experiment. The concentration of fluorescent ligands was determined by absorbance of FAM (E495=75000 M^−1 cm^−1).
The recombinant mouse macrophage mannose receptor rmMMR/CD206 (R&D Systems, catalog number: 2535-MM-050) and recombinant mouse CD163 (R&D Systems, catalog number: 7435-CD-050) were reconstituted at 1 mg/ml in IB, aliquoted and stored at −20° C. To generate linearized version of cyclic FAM-UNO peptide, the peptide at 1 mM concentration was preincubated for 24 h at room temperature in a dark place with 3 mM DTT and diluted with IB 2×10^5 times before the FA assay. The control experiment with FAM-CPMTDNE peptide (FIG. 22) was performed to rule out the possibility of disulphide bond formation, which could affect the binding properties of linear peptides. Initially, the peptide was preincubated in DMSO for 4 days at room temperature to enhance the disulphide bond formation, and then diluted in IB buffer with 3 mM DTT, and the disappearance of preformed dimer was observed as a change in FA signal.
In all experiments, FA signal measurements were done under pseudo first-order conditions with 50 nM singly labelled FAM peptides and 1 μM proteins. […] Assays were carried out in kinetic mode in a total volume of 30 μl at 25° C. on the PHERAstar (BMG Labtech, Germany) microplate reader using an optical module with excitation and emission filters of 485 nm (slit 10 nm) and 520 nm (slit 10 nm), respectively. Dual emission detection mode allows simultaneous recording of intensities that are parallel (l) and perpendicular (1) to the plane of excitation light. […] The background fluorescence (receptor and buffer components in the absence of fluorescent ligand) was subtracted independently from all intensity channels. FA signals at time t after initiation of binding reaction was calculated as parameters r(t) from the equation: […]

With “FAM-CSPGAK: FAM-labeled linear CSPGAK (SEQ ID NO: 6) (not fully specified; FAM label)” the “change in fluorescence anisotropy (interaction) with mouse recombinant CD206” value was “clear time-dependent increase of anisotropy”.

With “FAM-UNO: FAM-labeled UNO peptide CSPGAKVRC (SEQ ID NO: 1); 5(6)-carboxyfluorescein with 6-aminohexanoic acid spacer at the N-terminus ({FAM-Ahx}-CSPGAKVRC; cysteine pairing not given here)” the “change in fluorescence anisotropy (interaction) with mouse recombinant CD206” value was “did not cause a change in the fluorescence anisotropy”.
